Measurements published in the supplement of paper PMC9170038.

Test system: MS2 coat protein
Test: apparent KD of MS2 coat protein; designed switch direction (-1 OFF switch, 1 ON switch): 1; higher = weaker reporter binding
Method in brief: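 Three titration conditions were used: no input, 200 uM small-molecule ligand, and an oligonucleotide input. In each, SNAP-549-labelled MS2 coat protein was raised from 0.7 or 1.5 nM, doubling, to 3 µM over designed RNA switches transcribed on Illumina chips by stalled E. coli RNA polymerase. Curve fits of normalised cluster fluorescence gave values whose per-design median over clusters is the apparent KD.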

[1] = input ligand: microRNA oligo, concentration not stated
[2] = Eterna round: R95, input ligand: FMN 200 uM
[3] = Eterna round: R95, input ligand: microRNA oligo, concentration not stated
[4] = Eterna round: R95, input ligand: none

| Sequence | apparent KD of MS2 coat protein (input ligand: FMN 200 uM) [nM] | apparent KD of MS2 coat protein [1] [nM] | apparent KD of MS2 coat protein (input ligand: none) [nM] | apparent KD of MS2 coat protein [2] [nM] | apparent KD of MS2 coat protein [3] [nM] | apparent KD of MS2 coat protein [4] [nM] |
| --- | --- | --- | --- | --- | --- | --- |
| ACAUGAGGAUCACCCAUGUAACACCUGAAAAUAAAACGAACACAGGAUAUCCCAGCAUGACGCCGGGAGAAGGGUGAUCGAAGA [Quorer] (Eterna round: R96, puzzle: Same State NG 3) | 124 | 118 | 52.8 |  |  |  |
| ACAUGAGGAUCACCCAUGUAACACCUGAAAAUAAAACGAACACAGGAUAUCCCGGCAAGACACCGGGAGAAGGGUGAUCGAAGA [Eresorbe] (Eterna round: R96, puzzle: Same State NG 3) | 411 | 13.6 | 90.9 |  |  |  |
| ACAUGAGGAUCACCCAUGUCUUUAUCCGAUUCUUCAUUUACGUAGGAUAUCGUCUAUACUAUCAUCGAGAAGGACGUUCUUUAA [JR_SSNG3_Sub070] (Eterna round: R96, puzzle: Same State NG 3) |  | 13.9 |  |  |  |  |
| ACGCCCUCAGUAGGAUAUGGGAAAGGAAGUGUACCAGAAGGACUGGUUGAACAUGAGGAUCACCCAUGUUCAACGACAGGGCAA [PowerStrip SSNG 1.20] (Eterna round: R96, puzzle: Same State NG 1) | 18.6 | 13.9 | 18.6 |  |  |  |
| ACGCCUAAACGGCGAAAACGACAUGAGGAUCACCCAUGUACACAGGAUAUCAGCCUGCAACAGGCUGAGAAGGGUGAACCUAAA [Atatmadiar] (Eterna round: R96, puzzle: Same State NG 3) | 711 | 35.5 | 155 |  |  |  |
| ACUCAGUACAAUUUAGAUCUACAUGAGGAUCACCCAUGUACUGAGGAUAUCAGCUCGUUUAGAGCUGAGAAGGCAGUUGUACUA [SSNG3/10-A3] (Eterna round: R96, puzzle: Same State NG 3) | 108 | 221 | 311 |  |  |  |
| ACUCUCACAGUAGGAUAUGUAGGAUAUGCCUACAUGAGGAUCACCCAUGUAAACAUGGCAGAAGGAUAGAAGGACUGACAUGGG [pwkr ssNG2 2FMN + 1F5.3] (Eterna round: R96, puzzle: Same State NG 2) | 274 | 233 | 278 |  |  |  |
| AGAAAGAAACAUGAGGAUCACCCAUGUACAAGCUUUUUGCUCGUCUUAUUACAUGGGUUCAUGGGUGAUCGGGAUGU [Tim MacKenzie] (puzzle: Sensor for hsa-mir-208a version 2) |  |  |  | 11.1 | 13.1 | 19.9 |
| AGAAGACAUGAGGAUCACCCAUGUCCCUCAUGCGUAGGAUAUAUAAGAAGAAAGAAAAGGAUAGAAGGACGAAAAG [Default title] (puzzle: Same State 1) |  |  |  | 97.5 | 119 | 194 |
| AGAGAAGAAGCUGAGGAUAUCGUAAGGAGGACAUGAGGAUCACCCAUGUGUGUGGAAUUGGAGGACGAGAAGGCAGAGGAGUGGG [JR_SS2_Sub056] (puzzle: Same State 2) |  |  |  | 25.1 | 28.3 | 27.8 |
| AGAGGAGGAGCAGGAUAUGCGAAGAAGAACGAGGUAGAAGGGCUCAUGCGAUGACAUGAGGAUCACCCAUGUACCGCGCGAGGA [AK SSNG1-V2-8.2] (Eterna round: R96, puzzle: Same State NG 1) | 207 | 209 | 142 |  |  |  |
| AGAGGAGGCGCAGGAUAUACGACGGAGGACGUGGUAGAAGGGUGCAUGCGAUAACAUGAGGAUCACCCAUGUACCGCGCGACGA [AK SSNG1-V2-17] (Eterna round: R96, puzzle: Same State NG 1) | 210 | 30.2 | 198 |  |  |  |
| AGAUAAGUCACAGGAUAUUCCUACAUUAAUAUGGAAGAAGGGUGAGCAUGAUUCGAUACAUGAGGAUCACCCAUGUAUCCGCGA [Eternabot solution 31] (Eterna round: R96, puzzle: Same State NG 1) |  | 54 |  |  |  |  |
| AGAUCAUGACGAGGAUAUCCGACAUGAGGAUCACCCAUGUAUGUCGGAGGACGCGUACGUCCAAUGGAGAAGGCGUCGUGGUCA [JL SSNG2 1.03] (Eterna round: R96, puzzle: Same State NG 2) | 18.2 | 73.7 | 82.5 |  |  |  |
| AGAUCAUGACGAGGAUAUGGUACAUGAGGAUCACCCAUGUAUGUACCAUAAUUAGUAUUAGGAAACCAGAAGGCGUCGUGGUCA [JL SSNG2 1.18] (Eterna round: R96, puzzle: Same State NG 2) | 10.1 | 55.7 | 85.4 |  |  |  |
| AGAUCAUGACGAGGAUAUGGUACAUGAGGAUCACCCAUGUAUGUACCAUAGCAACAGCUAGGAAACCAGAAGGCGUCGUGGUCA [jandersonlee JLSSNG2 1.18 Native F5 + F7] (Eterna round: R96, puzzle: Same State NG 2) | 13.6 | 15.6 | 26.6 |  |  |  |

| Sequence | apparent KD of MS2 coat protein (input ligand: FMN 200 uM) [nM] | apparent KD of MS2 coat protein [1] [nM] | apparent KD of MS2 coat protein (input ligand: none) [nM] | apparent KD of MS2 coat protein [2] [nM] | apparent KD of MS2 coat protein [3] [nM] | apparent KD of MS2 coat protein [4] [nM] |
| --- | --- | --- | --- | --- | --- | --- |
| AGAUCAUGACGAGGAUAUGGUACAUGAGGAUCACCCAUGUAUGUACUAUAAUUCGAAUGAGGAAUCCAGAAGGCGUCGUGGUCA [JL SSNG2 1.15] (Eterna round: R96, puzzle: Same State NG 2) | 15.3 | 29.6 | 55.4 |  |  |  |
| AGAUGUUAAUCAGGAUAUGGGCACAUGAGGAUCACCCAUGUAAAUUCGAUACUAUGUGGACACGUCUAGAAGGGAUGGCUAACA [SameState NG2 #83] (Eterna round: R96, puzzle: Same State NG 2) | 125 | 73.5 | 106 |  |  |  |
| AGAUGUUAAUCAGGAUAUGGGCACAUGAGGAUCACCCAUGUAACGUAGAUACGAUGUGGUCAAGUCUAGAAGGGAUAGCUAACA [SameState NG2 #78] (Eterna round: R96, puzzle: Same State NG 2) | 125 | 60.7 | 65.9 |  |  |  |
| AGCAAAGCGACAGGAUAUGGUAAGGAUCUCUUACCAGAAGGGUCAAGUGCAUGACAUGAGGAUCACCCAUGUAGGUUGUUUACC [Eternabot solution 44] (Eterna round: R96, puzzle: Same State NG 1) | 18.2 | 18.5 | 26.5 |  |  |  |
| AGCCGAGACACAGGAUAUAGAUAUCUACAUGAGGAUCACCCAUGUAGCAACACGUGGUAGUGAUACUAGAAGGGUGCUCGGCGC [Omei SS(NG)2 Cv9] (Eterna round: R96, puzzle: Same State NG 2) | 20.2 | 60 | 73.1 |  |  |  |
| AGCCGAGACACAGGAUAUAGAUGUUUACAUGAGGAUCACCCAUGUAGCAACACGUGGUAGUGAUUCUAGAAGGGUGCUCGGCGC [Omei SS(NG)2 Cv11] (Eterna round: R96, puzzle: Same State NG 2) | 36.3 | 116 | 167 |  |  |  |
| AGCCGAGACUGAGGAUAUUUGAAUCUACAUGAGGAUCACCCAUGUAGCAACACGUGGUAGUGAUCGAAGAAGGCAGCUCGGCGC [MOD of Omei's SS(NG)2 Cv2] (Eterna round: R96, puzzle: Same State NG 2) | 22.6 | 45.7 | 57 |  |  |  |
| AGCGGAUAACAGUAGGAUAUGGCCAACGCCACAUGAGGAUCACCCAUGUCGUACCGGCACCUGGACUAGAAGGACUGCCUCCCGC [Ariscedi] (puzzle: Same State 2) |  |  |  |  | 22.8 |  |
| AGCUAAAACGAAGGAUAUACAAACAUGAGGAUCACCCAUGUAUACAUGGUUUGUUGUGACCACAUGUAGAAGGUCGUACUAACA [SameState NG2 #18] (Eterna round: R96, puzzle: Same State NG 2) | 178 | 405 | 358 |  |  |  |
| AGCUAAAACGAAGGAUAUACAAACAUGAGGAUCACCCAUGUAUACAUGGUUUGUUGUGACUACAUGUAGAAGGUCGUACUAACA [SameState NG2 #17] (Eterna round: R96, puzzle: Same State NG 2) | 388 | 307 | 500 |  |  |  |
| AGCUAGUACCGAGGAUAUACAUACAUGAGGAUCACCCAUGUAUACAUGAAUUUAUGAGACUACAUGUAGAAGGCGGUACUAGCA [JL SSNG2 1.21] (Eterna round: R96, puzzle: Same State NG 2) |  | 40.1 |  |  |  |  |
| AGCUAGUACGAAGGAUAUACAAACAUGAGGAUCACCCAUGUAUACAUGGUUUAAUGAGACUACAUGUAGAAGGUCGUACUAGCA [SameState NG2 #13] (Eterna round: R96, puzzle: Same State NG 2) | 559 | 423 | 1030 |  |  |  |
| AGCUAGUACGAAGGAUAUACAAACAUGAGGAUCACCCAUGUAUACAUGGUUUGAUGAGACUACAUGUAGAAGGUCGUACUAGCA [SameState NG2 #14] (Eterna round: R96, puzzle: Same State NG 2) |  | 176 |  |  |  |  |
| AGCUAUCGAAAACGAUAGCAAAAGCAUGUACAUGAGGAUCACCCAUGUCAUGUACAAGCUUUUUGCUCGUCUUGAAA [Zipper 23 - 9] (Eterna round: R96, puzzle: Sensor for hsa-mir-208a) | 496 | 16.6 | 824 |  |  |  |
| AGCUAUCGAAAACGAUAGCAAAAGCAUGUACAUGAGGAUCACCCAUGUCAUGUACAAGCUUUUUGCUCGUCUUGAAA [Zipper 23 - 9] (puzzle: Sensor for hsa-mir-208a) |  |  |  | 132 | 13 | 1390 |
